# In PMC10247859, “Replisome-cohesin interactions provided by the Tof1-Csm3 and Mrc1 cohesion establishment factors” (Chromosoma, 2023):
# T1: Chl1 (S. cerevisiae (budding yeast), UniProt P22516 1-861)
# T1 construct: Chl1, budding yeast; codon-optimized ectopic copy; also called Flag-tagged Chl1; Chl1 helicase
# T1 sequence (looked up): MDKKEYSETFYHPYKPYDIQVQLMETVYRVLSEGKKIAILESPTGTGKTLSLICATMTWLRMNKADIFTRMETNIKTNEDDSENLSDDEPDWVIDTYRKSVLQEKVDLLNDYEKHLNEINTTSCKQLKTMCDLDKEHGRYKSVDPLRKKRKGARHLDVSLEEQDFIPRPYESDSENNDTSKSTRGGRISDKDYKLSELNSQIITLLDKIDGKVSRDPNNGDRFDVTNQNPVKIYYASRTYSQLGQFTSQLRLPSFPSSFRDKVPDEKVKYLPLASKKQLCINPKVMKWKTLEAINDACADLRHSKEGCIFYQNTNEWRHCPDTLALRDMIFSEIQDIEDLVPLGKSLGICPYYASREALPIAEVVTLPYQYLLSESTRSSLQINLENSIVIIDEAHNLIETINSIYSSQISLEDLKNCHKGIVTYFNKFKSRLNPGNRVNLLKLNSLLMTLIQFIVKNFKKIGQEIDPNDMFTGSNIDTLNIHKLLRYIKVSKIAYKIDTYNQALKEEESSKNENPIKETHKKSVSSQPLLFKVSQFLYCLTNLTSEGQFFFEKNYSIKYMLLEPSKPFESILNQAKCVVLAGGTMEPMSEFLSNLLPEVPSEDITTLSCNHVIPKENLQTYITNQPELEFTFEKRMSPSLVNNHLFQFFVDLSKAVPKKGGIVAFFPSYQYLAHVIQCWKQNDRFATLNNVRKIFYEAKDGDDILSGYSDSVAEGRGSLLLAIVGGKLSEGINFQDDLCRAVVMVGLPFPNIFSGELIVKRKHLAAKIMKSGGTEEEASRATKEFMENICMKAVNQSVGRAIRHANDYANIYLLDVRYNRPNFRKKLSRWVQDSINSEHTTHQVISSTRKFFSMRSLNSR
# T2: Tof1 (S. cerevisiae (budding yeast), UniProt P53840 1-1238)
# T2 construct: Tof1, budding yeast; the Tof1 chain of m2; Stood in the cross-linking sample as a chain of the Tof1-Csm3 complex; source: purified as part of Tof1-Csm3, as previously described (Yeeles et al. 2017)
# T2 sequence (looked up): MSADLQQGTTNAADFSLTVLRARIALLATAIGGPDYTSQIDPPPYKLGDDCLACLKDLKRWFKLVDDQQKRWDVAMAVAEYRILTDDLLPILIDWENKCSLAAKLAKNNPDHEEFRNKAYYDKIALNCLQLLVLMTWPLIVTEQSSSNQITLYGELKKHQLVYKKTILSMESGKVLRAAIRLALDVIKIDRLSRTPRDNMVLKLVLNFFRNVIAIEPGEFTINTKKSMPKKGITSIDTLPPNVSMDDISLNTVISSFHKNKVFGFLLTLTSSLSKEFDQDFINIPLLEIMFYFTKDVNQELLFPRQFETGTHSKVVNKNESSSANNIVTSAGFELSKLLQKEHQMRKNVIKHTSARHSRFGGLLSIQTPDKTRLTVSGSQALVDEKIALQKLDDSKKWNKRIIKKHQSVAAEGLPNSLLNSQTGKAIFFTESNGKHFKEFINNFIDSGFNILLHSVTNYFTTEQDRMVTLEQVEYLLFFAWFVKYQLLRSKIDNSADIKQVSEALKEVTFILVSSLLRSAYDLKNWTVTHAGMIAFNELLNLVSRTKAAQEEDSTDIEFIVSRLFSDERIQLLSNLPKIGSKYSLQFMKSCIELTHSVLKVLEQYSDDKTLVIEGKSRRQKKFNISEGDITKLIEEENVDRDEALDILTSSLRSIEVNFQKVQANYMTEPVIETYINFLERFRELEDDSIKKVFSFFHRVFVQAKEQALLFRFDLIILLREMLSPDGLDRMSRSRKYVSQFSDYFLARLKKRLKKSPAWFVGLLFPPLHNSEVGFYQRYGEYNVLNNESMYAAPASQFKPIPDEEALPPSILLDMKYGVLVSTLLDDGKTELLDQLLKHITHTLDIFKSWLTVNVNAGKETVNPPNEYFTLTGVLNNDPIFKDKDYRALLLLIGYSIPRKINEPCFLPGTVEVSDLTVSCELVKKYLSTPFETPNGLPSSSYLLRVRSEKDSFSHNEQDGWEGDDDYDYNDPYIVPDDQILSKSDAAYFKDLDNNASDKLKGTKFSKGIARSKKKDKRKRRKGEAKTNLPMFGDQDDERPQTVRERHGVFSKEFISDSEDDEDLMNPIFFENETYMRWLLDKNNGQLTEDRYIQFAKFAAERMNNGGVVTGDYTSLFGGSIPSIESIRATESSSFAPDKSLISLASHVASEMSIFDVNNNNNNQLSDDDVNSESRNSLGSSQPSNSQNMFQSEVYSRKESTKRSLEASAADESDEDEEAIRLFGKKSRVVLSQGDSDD
# Legend:
# Settings in all cases: both partners purified
# Chl1 = biological target: T1, Chl1; assay: cross-linking; CLMS with sulfo-SDA; cohesin, Tof1-Csm3 and Chl1 with or without Mrc1 at 300-350 nM, 30 °C 5 min, cross-linker 2 h at 4 °C, UV 365 nm; LC-MS/MS, 1% FDR at residue-pair level; two samples merged
# Tof1 = biological target: T2, Tof1; assay: as above
# [1] = biological target: T3, cohesin trimer (Smc1-Smc3-Scc1) (S. cerevisiae (budding yeast), UniProt P32908 1-1225; P47037 1-1230; Q12158 1-566); assay: pull-down; Tof1-Csm3 (200-600 nM) held on calmodulin dynabeads; cohesin tetramer, trimer or Smc1-Smc3 dimer as prey; interaction buffer with 100 mM potassium glutamate; Coomassie staining; benzonase or NaCl added where indicated
# T3 construct: Smc1, cohesin subunit, budding yeast; Smc3, cohesin subunit, budding yeast; Scc1, cohesin subunit, budding yeast; source: purified following the same protocol as cohesin tetramers (IgG agarose, 3C protease cleavage); copies: + +
# T3 sequence (P32908 whole entry, chain 1 of 2): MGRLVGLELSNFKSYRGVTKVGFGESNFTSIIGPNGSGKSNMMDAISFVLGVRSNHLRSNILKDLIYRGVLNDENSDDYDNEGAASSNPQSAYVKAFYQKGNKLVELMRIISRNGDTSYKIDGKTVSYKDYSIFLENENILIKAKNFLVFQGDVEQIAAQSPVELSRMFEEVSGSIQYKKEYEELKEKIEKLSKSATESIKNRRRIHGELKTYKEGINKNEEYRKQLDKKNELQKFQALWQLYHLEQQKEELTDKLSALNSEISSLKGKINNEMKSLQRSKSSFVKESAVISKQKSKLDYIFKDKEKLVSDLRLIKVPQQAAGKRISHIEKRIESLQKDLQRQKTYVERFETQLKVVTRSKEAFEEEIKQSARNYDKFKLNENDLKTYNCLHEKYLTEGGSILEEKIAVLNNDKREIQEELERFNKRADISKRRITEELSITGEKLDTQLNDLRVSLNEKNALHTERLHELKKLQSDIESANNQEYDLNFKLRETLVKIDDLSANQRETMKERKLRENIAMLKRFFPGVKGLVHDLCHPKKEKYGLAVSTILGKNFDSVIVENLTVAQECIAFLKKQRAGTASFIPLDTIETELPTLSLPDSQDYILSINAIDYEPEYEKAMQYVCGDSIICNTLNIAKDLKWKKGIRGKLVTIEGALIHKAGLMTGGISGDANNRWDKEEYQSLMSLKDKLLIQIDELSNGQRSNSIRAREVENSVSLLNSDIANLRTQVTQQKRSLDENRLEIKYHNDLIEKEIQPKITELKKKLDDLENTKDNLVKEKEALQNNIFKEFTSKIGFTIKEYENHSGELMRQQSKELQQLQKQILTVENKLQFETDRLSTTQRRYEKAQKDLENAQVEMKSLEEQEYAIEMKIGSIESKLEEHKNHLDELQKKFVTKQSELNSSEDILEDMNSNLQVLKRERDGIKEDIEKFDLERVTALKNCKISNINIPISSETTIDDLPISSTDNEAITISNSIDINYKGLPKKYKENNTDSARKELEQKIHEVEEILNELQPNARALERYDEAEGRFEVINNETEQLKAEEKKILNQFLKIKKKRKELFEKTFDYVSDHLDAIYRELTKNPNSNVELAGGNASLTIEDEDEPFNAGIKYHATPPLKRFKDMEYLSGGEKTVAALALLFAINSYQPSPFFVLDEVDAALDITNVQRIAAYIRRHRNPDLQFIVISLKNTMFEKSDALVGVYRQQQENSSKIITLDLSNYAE
# T3 sequence (P47037 whole entry, chain 2 of 2): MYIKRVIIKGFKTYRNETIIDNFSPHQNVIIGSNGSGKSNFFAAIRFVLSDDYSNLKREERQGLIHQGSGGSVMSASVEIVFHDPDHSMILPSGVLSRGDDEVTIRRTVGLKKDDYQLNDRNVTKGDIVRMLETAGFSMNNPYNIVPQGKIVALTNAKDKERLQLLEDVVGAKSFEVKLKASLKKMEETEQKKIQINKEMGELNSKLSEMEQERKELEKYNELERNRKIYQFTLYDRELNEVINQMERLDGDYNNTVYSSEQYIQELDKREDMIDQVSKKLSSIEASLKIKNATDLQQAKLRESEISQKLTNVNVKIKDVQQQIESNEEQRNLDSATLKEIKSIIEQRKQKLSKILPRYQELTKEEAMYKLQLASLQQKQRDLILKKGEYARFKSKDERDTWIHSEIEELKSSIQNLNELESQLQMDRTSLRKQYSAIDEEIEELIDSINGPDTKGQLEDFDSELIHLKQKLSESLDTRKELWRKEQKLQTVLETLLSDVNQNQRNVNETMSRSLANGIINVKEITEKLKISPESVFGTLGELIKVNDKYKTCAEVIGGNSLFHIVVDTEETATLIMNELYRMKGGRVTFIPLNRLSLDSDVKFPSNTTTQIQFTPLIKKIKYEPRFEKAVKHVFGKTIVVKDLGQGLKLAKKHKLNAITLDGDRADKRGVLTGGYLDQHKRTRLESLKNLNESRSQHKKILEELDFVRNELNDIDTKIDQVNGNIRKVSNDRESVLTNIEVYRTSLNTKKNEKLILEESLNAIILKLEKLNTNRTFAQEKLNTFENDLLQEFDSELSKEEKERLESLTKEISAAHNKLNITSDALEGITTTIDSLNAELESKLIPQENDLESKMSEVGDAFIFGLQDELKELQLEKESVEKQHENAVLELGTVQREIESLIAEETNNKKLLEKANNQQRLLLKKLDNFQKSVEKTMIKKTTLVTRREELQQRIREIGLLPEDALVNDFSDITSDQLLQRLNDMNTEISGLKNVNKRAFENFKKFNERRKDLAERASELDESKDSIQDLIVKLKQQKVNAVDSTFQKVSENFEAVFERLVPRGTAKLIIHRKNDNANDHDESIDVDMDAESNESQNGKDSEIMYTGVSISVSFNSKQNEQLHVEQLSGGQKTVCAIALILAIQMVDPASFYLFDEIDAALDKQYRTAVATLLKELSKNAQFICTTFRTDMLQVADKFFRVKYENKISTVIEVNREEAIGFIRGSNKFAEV
# Smc1-Smc3 dimer = biological target: T4, Smc1-Smc3 dimer (S. cerevisiae (budding yeast), UniProt P32908 1-1225; P47037 1-1230); assay: as above
# T4 construct: Smc1, cohesin subunit, budding yeast; Smc3, cohesin subunit, budding yeast; also called SMC dimer; SMC dimers (Smc1-Smc3); source: purified following the same protocol as cohesin tetramers (IgG agarose, 3C protease cleavage); not shown: Protein A, C-terminal, cleaved
# T4 sequence (P32908 whole entry, chain 1 of 2): as the sequence (P32908 whole entry, chain 1 of 2) above
# T4 sequence (P47037 whole entry, chain 2 of 2): as the sequence (P47037 whole entry, chain 2 of 2) above
# [2] = biological target: T5, cohesin tetramer complex (Smc1-Smc3-Scc1-Scc3) (S. cerevisiae (budding yeast), UniProt P32908 1-1225; P47037 1-1230; Q12158 1-566; P40541 1-1150); assay: pull-down; cohesin tetramer (200-600 nM) held on Protein A dynabeads by anti-Pk antibody (Pk tag on Smc1); 200 nM prey, 30 °C, 5 min; 25 mM HEPES-KOH pH 7.6, 100 mM potassium glutamate, 10 mM magnesium acetate, 0.12% NP-40; SDS elution, Coomassie staining
# T5 construct: Smc1, cohesin subunit, budding yeast; Smc3, cohesin subunit, budding yeast; Scc1, cohesin subunit, budding yeast; Scc3, cohesin subunit, budding yeast; also called cohesin complex; source: purified as previously described (Minamino et al. 2018): IgG agarose, 3C protease cleavage; copies: + + +
# T5 sequence (P32908 whole entry, chain 1 of 3): as the sequence (P32908 whole entry, chain 1 of 2) above
# T5 sequence (P47037 whole entry, chain 2 of 3): as the sequence (P47037 whole entry, chain 2 of 2) above
# T5 sequence (P40541 whole entry, chain 4 of 3): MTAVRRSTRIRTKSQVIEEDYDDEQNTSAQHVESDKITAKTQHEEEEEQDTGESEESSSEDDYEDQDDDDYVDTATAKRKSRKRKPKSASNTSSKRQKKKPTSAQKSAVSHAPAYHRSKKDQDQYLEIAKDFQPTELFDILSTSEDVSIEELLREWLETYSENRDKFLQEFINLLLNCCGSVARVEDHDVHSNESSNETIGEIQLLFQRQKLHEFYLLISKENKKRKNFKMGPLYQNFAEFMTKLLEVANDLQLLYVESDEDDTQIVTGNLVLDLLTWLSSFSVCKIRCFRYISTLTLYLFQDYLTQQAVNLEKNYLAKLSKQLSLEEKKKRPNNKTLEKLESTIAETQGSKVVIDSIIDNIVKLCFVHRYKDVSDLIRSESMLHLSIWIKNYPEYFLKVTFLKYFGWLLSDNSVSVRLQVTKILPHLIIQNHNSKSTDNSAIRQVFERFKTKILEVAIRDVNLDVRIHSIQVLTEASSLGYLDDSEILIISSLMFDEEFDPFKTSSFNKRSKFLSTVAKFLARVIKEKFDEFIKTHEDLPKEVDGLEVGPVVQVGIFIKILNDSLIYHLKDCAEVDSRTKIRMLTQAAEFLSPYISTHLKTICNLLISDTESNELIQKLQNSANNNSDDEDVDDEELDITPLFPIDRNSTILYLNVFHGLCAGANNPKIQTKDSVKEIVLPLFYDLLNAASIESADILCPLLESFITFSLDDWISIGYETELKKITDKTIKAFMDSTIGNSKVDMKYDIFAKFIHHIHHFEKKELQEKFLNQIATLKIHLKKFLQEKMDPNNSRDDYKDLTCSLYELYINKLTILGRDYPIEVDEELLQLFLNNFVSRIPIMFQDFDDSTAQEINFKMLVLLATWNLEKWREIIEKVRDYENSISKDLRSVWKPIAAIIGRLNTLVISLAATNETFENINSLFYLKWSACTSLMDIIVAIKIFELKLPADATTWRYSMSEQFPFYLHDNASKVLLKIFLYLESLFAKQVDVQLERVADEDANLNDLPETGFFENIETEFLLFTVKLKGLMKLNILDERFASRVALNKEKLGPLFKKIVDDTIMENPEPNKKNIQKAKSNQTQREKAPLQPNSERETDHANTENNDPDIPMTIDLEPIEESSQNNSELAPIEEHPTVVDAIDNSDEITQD
binding result (Chl1),binding result (Tof1),binding result [1],binding result (Smc1-Smc3 dimer),binding result [2],Binder
binds,binds,,,,"Scc1 (natural protein, S. cerevisiae (budding yeast), UniProt Q12158 1-566, looked up, Scc1, budding yeast; the Scc1 chain of m1; Stood in the cross-linking sample as a chain of cohesin; source: purified as part of cohesin, as previously described (Minamino et al. 2018)) MVTENPQRLTVLRLATNKGPLAQIWLASNMSNIPRGSVIQTHIAESAKEIAKASGCDDESGDNEYITLRTSGELLQGIVRVYSKQATFLLTDIKDTLTKISMLFKTSQKMTSTVNRLNTVTRVHQLMLEDAVTEREVLVTPGLEFLDDTTIPVGLMAQENSMERKVQGAAPWDTSLEVGRRFSPDEDFEHNNLSSMNLDFDIEEGPITSKSWEEGTRQSSRNFDTHENYIQDDDFPLDDAGTIGWDLGITEKNDQNNDDDDNSVEQGRRLGESIMSEEPTDFGFDLDIEKEAPAGNIDTITDAMTESQPKQTGTRRNSKLLNTKSIQIDEETENSESIASSNTYKEERSNNLLTPQPTNFTTKRLWSEITESMSYLPDPILKNFLSYESLKKRKIHNGREGSIEEPELNVSLNLTDDVISNAGTNDNSFNELTDNMSDFVPIDAGLNEAPFPEENIIDAKTRNEQTTIQTEKVRPTPGEVASKAIVQMAKILRKELSEEKEVIFTDVLKSQANTEPENITKREASRGFFDILSLATEGCIGLSQTEAFGNIKIDAKPALFERFINA"
,,binds,binds,binds,"Tof1-Csm3 complex (complex, S. cerevisiae (budding yeast), Tof1, budding yeast; Csm3, budding yeast; Held on calmodulin dynabeads when used as bait; source: purified as previously described (Yeeles et al. 2017)) chain 1: MSADLQQGTTNAADFSLTVLRARIALLATAIGGPDYTSQIDPPPYKLGDDCLACLKDLKRWFKLVDDQQKRWDVAMAVAEYRILTDDLLPILIDWENKCSLAAKLAKNNPDHEEFRNKAYYDKIALNCLQLLVLMTWPLIVTEQSSSNQITLYGELKKHQLVYKKTILSMESGKVLRAAIRLALDVIKIDRLSRTPRDNMVLKLVLNFFRNVIAIEPGEFTINTKKSMPKKGITSIDTLPPNVSMDDISLNTVISSFHKNKVFGFLLTLTSSLSKEFDQDFINIPLLEIMFYFTKDVNQELLFPRQFETGTHSKVVNKNESSSANNIVTSAGFELSKLLQKEHQMRKNVIKHTSARHSRFGGLLSIQTPDKTRLTVSGSQALVDEKIALQKLDDSKKWNKRIIKKHQSVAAEGLPNSLLNSQTGKAIFFTESNGKHFKEFINNFIDSGFNILLHSVTNYFTTEQDRMVTLEQVEYLLFFAWFVKYQLLRSKIDNSADIKQVSEALKEVTFILVSSLLRSAYDLKNWTVTHAGMIAFNELLNLVSRTKAAQEEDSTDIEFIVSRLFSDERIQLLSNLPKIGSKYSLQFMKSCIELTHSVLKVLEQYSDDKTLVIEGKSRRQKKFNISEGDITKLIEEENVDRDEALDILTSSLRSIEVNFQKVQANYMTEPVIETYINFLERFRELEDDSIKKVFSFFHRVFVQAKEQALLFRFDLIILLREMLSPDGLDRMSRSRKYVSQFSDYFLARLKKRLKKSPAWFVGLLFPPLHNSEVGFYQRYGEYNVLNNESMYAAPASQFKPIPDEEALPPSILLDMKYGVLVSTLLDDGKTELLDQLLKHITHTLDIFKSWLTVNVNAGKETVNPPNEYFTLTGVLNNDPIFKDKDYRALLLLIGYSIPRKINEPCFLPGTVEVSDLTVSCELVKKYLSTPFETPNGLPSSSYLLRVRSEKDSFSHNEQDGWEGDDDYDYNDPYIVPDDQILSKSDAAYFKDLDNNASDKLKGTKFSKGIARSKKKDKRKRRKGEAKTNLPMFGDQDDERPQTVRERHGVFSKEFISDSEDDEDLMNPIFFENETYMRWLLDKNNGQLTEDRYIQFAKFAAERMNNGGVVTGDYTSLFGGSIPSIESIRATESSSFAPDKSLISLASHVASEMSIFDVNNNNNNQLSDDDVNSESRNSLGSSQPSNSQNMFQSEVYSRKESTKRSLEASAADESDEDEEAIRLFGKKSRVVLSQGDSDD chain 2: MDQDFDSLLLGFNDSDSVQKDPTVPNGLDGSVVDPTIADPTAITARKRRPQVKLTAEKLLSDKGLPYVLKNAHKRIRISSKKNSYDNLSNIIQFYQLWAHELFPKAKFKDFMKICQTVGKTDPVLREYRVSLFRDEMGMSFDVGTRETGQDLERQSPMVEEHVTSAEERPIVADSFAQDKRNVNNVDYDNDEDDDIYHLSYRNRRGRVLDERGNNETVLNNVVPPKEDLDALLKTFRVQGPVGLEENEKKLLLGWLDAHRKMEKGSMTEEDVQLIQSLEEWEMNDIEGQHTHYDLLPGGDEFGVDQDELDAMKEMGF"
